# Source: EP3061768A1 (dated 2016)
# How the values were obtained:
# neutravidin = molecular target: T1, neutravidin (UniProt P02701 25-152); experiment: phage ELISA, crude phage extract, anti-M13-HRP
# T1 construct: Control wells without biotinylated IL-1 Beta
# human IL-1 Beta (human) [1] = molecular target: human IL-1 Beta (human) (UniProt P01584); experiment: competition ELISA, periplasmic extract; competitor: coated mouse mAb (Diaclone); reduced signal means competition
# human IL-1 Beta (human) [2] = molecular target: human IL-1 Beta (human) (UniProt P01584); experiment: cell-based or functional assay
# human IL-1 Beta (human) [3] = molecular target: human IL-1 Beta (human) (UniProt P01584); experiment: ELISA based competition assay; competitor: antagonistic reference mouse mAb (Diaclone)
# Sequence of human IL-1 Beta (human) (P01584 117-269 limits assumed): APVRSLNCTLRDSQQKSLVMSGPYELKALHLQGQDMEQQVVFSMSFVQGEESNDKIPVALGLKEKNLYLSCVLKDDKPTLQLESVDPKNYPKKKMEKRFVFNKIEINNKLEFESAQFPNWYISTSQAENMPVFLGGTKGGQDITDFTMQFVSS
# T1 sequence (P02701 25-152): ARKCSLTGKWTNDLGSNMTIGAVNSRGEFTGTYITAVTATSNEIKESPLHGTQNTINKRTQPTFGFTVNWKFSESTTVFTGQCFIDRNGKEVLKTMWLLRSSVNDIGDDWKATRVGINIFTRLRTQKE
Binder,binding result (neutravidin),OD signal in the competition assay (human IL-1 Beta (human) [1]) [OD],also measured
"wt 1E2 gene3-Fab fusion on phage (Fab, V domains shown, crude phage extract; also called wt 1E2 (phage)) VH: EVQLVESGGGLVQPGGSLRLSCTASGFTFSNYWMYWVRQAPGKGLEWVSAINAAGSTYYADSVKGRFTISRDNAKNTLYLQMNSLQSEDTALYYCANLPRWGQGTQVTVSS VL: QTVVTQEPSLSVSPGGTVTLTCGLSSGSVTSGNYPGWYQQKPGQAPRTLIYNTNSRYSGVPNRFSGSISGNKAALTITGAQPEDEADYYCAVYIGSSSYPVVFGGGTHLTVLG",no binding,–,–
"hum 1E2 gene3-Fab fusion on phage (Fab, V domains shown, also called fully humanized 1E2) VH: EVQLVESGGGLVQPGGSLRLSCAASGFTFSNYWMYWVRQAPGKGLEWVSAINAAGSTYYADSVKGRFTISRDNSKNTLYLQMNSLRAEDTAVYYCANLPRWGQGTLVTVSS VL: QTVVTQEPSFSVSPGGTVTLTCGLSSGSVTSGNYPGWYQQTPGQAPRTLIYNTNSRSSGVPDRFSGSILGNKAALTITGAQADDESDYYCAVYIGSSSYPVVFGGGTKLTVLG",no binding,–,–
"safe variant 1E2 gene3-Fab fusion on phage (Fab, V domains shown, The text says 'partially humanized V lambda fused to human C lambda and CH1'; also called safe 1E2) VH: EVQLVESGGGLVQPGGSLRLSCAASGFTFSNYWMYWVRQAPGKGLEWVSAINAAGSTYYADSVKGRFTISRDNSKNTLYLQMNSLQSEDTAVYYCANLPRWGQGTQVTVSS VL: QTVVTQEPSFSVSPGGTVTLTCGLSSGSVTSGNYPGWYQQKPGQAPRTLIYNTNSRSSGVPDRFSGSILGNKAALTITGAQPDDESDYYCAVYIGSSSYPVVFGGGTHLTVLG",no binding,–,–
"Fab 1A1 (Fab, part only; not given: lambda light chain, V domains shown, not shown: a dimerising Fc or GST) VH: EVQLVESGGGLVQPGGSLRLSCAASGFTFDDYAMSWVRQAPGKGLEWVSTISWNGGATYYAESMKGRFTISRDNAKNTLYLQMNSLKSEDTAVYYCAKPYYSDYVGVEYDYWGQGTQVTVSS",–,0.205,IC50 in the bioassay (human IL-1 Beta (human) [2]): 10 µg/mL; IC50 (human IL-1 Beta (human) [3]): 12 µg/mL
"wt 1F2 gene3-Fab fusion on phage (Fab, V domains shown) VH: EVQLVESGGGLVQPGGSLRLSCAASGFTFSTYAMSWVRQAPGKGPEWVSGINTGGGSTGYADSVKGRFTISRDNAKNTLYLQMNSLKPEDTAVYYCAKDWMATTPWGQGTQVTVSS VL: QAVVTQEPSLSVSPGGTVTLTCGLSSGSVTTNNYPGWFQQTPGQAPRTLIYNTNNRHSGVPSRFSGSISGNKAALTITGAQPEDEADYYCALYMSSGSNNAVFGGGTHLTVLG",no binding,–,–
"hum 1F2 gene3-Fab fusion on phage (Fab, V domains shown, also called fully humanized 1F2) VH: EVQLLESGGGLVQPGGSLRLSCAASGFTFSTYAMSWVRQAPGKGLEWVSGINTGGGSTGYADSVKGRFTISRDNSKNTLYLQMNSLRAEDTAVYYCAKDWMATTPWGQGTLVTVSS VL: QTVVTQEPSFSVSPGGTVTLTCGLSSGSVTTNNYPGWYQQTPGQAPRTLIYNTNNRSSGVPDRFSGSILGNKAALTITGAQADDESDYYCALYMSSGSNNAVFGGGTKLTVLG",no binding,–,–
"safe variant 1F2 gene3-Fab fusion on phage (Fab, V domains shown, The text says 'partially humanized V lambda fused to human C lambda and CH1'; the result sentence speaks of back mutations in both VL and VH, so the safe VH is used; also called safe 1F2; partially humanized 1F2) VH: EVQLLESGGGLVQPGGSLRLSCAASGFTFSTYAMSWVRQAPGKGPEWVSGINTGGGSTGYADSVKGRFTISRDNSKNTLYLQMNSLRPEDTAVYYCAKDWMATTPWGQGTQVTVSS VL: QTVVTQEPSFSVSPGGTVTLTCGLSSGSVTTNNYPGWFQQTPGQAPRTLIYNTNNRHSGVPSRFSGSILGNKAALTITGAQADDESDYYCALYMSSGSNNAVFGGGTKLTVLG",no binding,–,–
"Fab 1B3 (Fab, part only; not given: lambda light chain, V domains shown, not shown: a dimerising Fc or GST) VH: EVQLVQSGAELRNPGASVKVSCKASGYTFTSYYIDWVRQAPGQGLEWMGRIDPEDGGTKYAQKFQGRVTFTADTSTSTAYVELSSLRSEDTAVYYCARSGRYELDYWGQGTQVTVSS",–,0.444,–
"Fab 1G1 (Fab, part only; not given: light chain, V domains shown, part only) VH: EVQLVQSGAELRNPGASVKVSCKASGYTFTSYYTDWVRQAPGQGLEWMGRIDPEDGDTKYAQKFQGRVTFTADTSTSTAYVELTSLRSEDTAVYYCLRSGAYELDYWGQGTQVTVSS",–,0.498,–
"Fab 1C3 (Fab, part only; not given: lambda light chain, V domains shown, not shown: a dimerising Fc or GST) VH: EVQLVESGGGLVQPGGSLRLSCAASGFTFSSYWMYWVRQAPGKGLEWVSAINTGGGRTYYADSVKGRFTISRDNAKNTLYLQMNSLKSEDTAVYYCAKGTSADGSSWYVPADPYDYWGQGTQVTVSS",–,0.386,IC50 in the bioassay (human IL-1 Beta (human) [2]): 3 µg/mL; concentration at which competition is seen (human IL-1 Beta (human) [3]): > 50 µg/mL
